Values belong to the molecule of their own block, whether it stands above or below them.
How the values were obtained:
Type in all cases: biochemical
[1] = Catalytic test Rebaudioside A to Rebaudioside D with in-vitro expressed UDP-glucosyltransferases (Examples 20, 21), HPLC; conditions: for Steviol glycoside conversion in reaction mixture, Reb A / Steviol glycoside conversion in reaction mixture, Reb D / Steviol glycoside conversion in reaction mixture, Reb UNK (later identified as reb D2): 0.5 mM Rebaudioside A, 30° C., HPLC; for Conversion RebA to RebD: in-vitro expressed enzyme
Procedure: The prepared expression medium mix was added to the plasmid solution and the solution was allowed to incubate at 30° C. for 3 hours while mixing the mixture every 45 minutes. 5 μL of the mixture was frozen whereas the remainder was used for the catalytic test for the conversion of Rebaudioside A to Rebaudioside D.
(§1) 430 μL of a reaction mixture containing 0.5 mM Rebaudioside A, 3 mM MgCl2, 50 mM phosphate buffer (pH7.2) and 2.5 mM UDP-glucose was added to a 1.5 mL sterile microtube. 52 μl of the enzyme expression medium was added and the resulting mixture was allowed to react at 30° C. for 24 hours. 125 μL samples were taken after 2 hours, 16 hours and 24 hours and added to a 115 μL of 60% methanol and 10 μL of 2 N H2SO4. The quenched sample was centrifuged at 18,000 g for 2 minutes at RT. 200 μL was transferred to an HPLC vial and analyzed.
The HPLC assay was performed as follows:
as §1, with “μL” for “μl”, “to” for “to an”
(§2) The HPLC assay was performed as described in EXAMPLE 20.

[2] = Activity of in-vivo produced enzymes for transformation of Rebaudioside A (Example 22); conditions: for Conversion after 45 hrs.: 0.5 mM, in-vivo produced enzyme lysate; for Reb D selectivity: after 45 hrs.
Procedure: Activity tests were performed at 5 mL scale with 1,000 μL of thawed lysate for the transformation of Rebaudioside A using 0.5 mM of substrate, 2.5 mM of UDP-Glucose and 3 mM MgCl2 in 50 mM Sodium Phosphate buffer at pH 7.2. Samples were taken and analyzed by HPLC.
as §2

[3] = Transformation of Stevioside to Rebaudioside A with UGT76G1 lysate (Examples 4, 13), HPLC; conditions: per mL of lysate; 1 U transforms 1 μmol in 1 hour at 30° C. and pH 7.2
Procedure: The total volume of the reaction was 5.0 mL with the following composition: 50 mM sodium phosphate buffer pH 7.2, 3 mM MgCl2, 2.5 mM UDP-glucose, 0.5 mM Stevioside and 500 μl, of UGT76G1 thawed lysate. The reactions were run at 30° C. on an orbitary shaker at 135 rpm. For each sample, 460 μL of the reaction mixture was quenched with 40 μL of 2N H2SO4 and 420 μL of methanol/water (6/4). The samples were immediately centrifuged and kept at 10° C. before analysis by HPLC (CAD).
(§3) Activity tests were performed on a 5 mL scale with 500 μL of thawed lysate for the transformation of Stevioside to Rebaudioside A and Rebaudioside D to Rebaudioside M using 0.5 mM of substrate, 2.5 mM of UDP-Glucose and 3 mM MgCl2 in 50 mM Sodium Phosphate buffer at pH 7.2. Samples were taken and analyzed by HPLC.

[4] = Transformation of Rebaudioside D to Rebaudioside M with UGT76G1 (Examples 6, 13), HPLC; conditions: per mL of lysate; 1 U transforms 1 μmol in 1 hour at 30° C. and pH 7.2
Procedure: The total volume of the reaction was 2 mL with the following composition: 50 mM sodium phosphate buffer pH 7.2, 3 mM MgCl2, 3.8 mM UDP-glucose, 0.5 mM Rebaudioside D and 180 μL of in-vitro produced UGT76G1. The reactions were run at 30° C. on an orbitary shaker at 135 rpm. For each sample, 400 μL of reaction mixture was quenched with 40 μL of 2N H2SO4 and 360 μL of 60% MeOH. After centrifugation, the supernatant was analyzed by HPLC (CAD).
as §3

B2: EUGT11: putative UDP-glucoronosyl and UDP-glucosyl transferase [Oryza sativa Japonica Group], from WO/2013/022989A2, SEQ ID NO:8 (protein, listed as Oryza sativa)
chain: MHVVICPLLAFGHLLPCLDLAQRLACGHRVSFVSTPRNISRLPPVRPSLAPLVSFVALPLPRVEGLPNGAESTHNVPHDRPDMVELHLRAFDGLAAPFSEFLGTACADWVMPTSSAPRQTLSSNIHRNSSRPGTPAPSGRLLCPITPHSNTLERAAEKLVRSSRQNARARSLLAFTSPPLPYRDVFRSLLGLQMGRKQLNIAHETNGRRTGTLPLNLCRWMWKQRRCGKLRPSDVEFNTSRSNEAISPIGASLVNLQSIQSPNPRAVLPIASSGVRAVFIGRARTSTPTPPHAKPARSAAPRAHRPPSSVMDSGYSSSYAAAAGMHVVICPWLAFGHLLPCLDLAQRLASRGHRVSFVSTPRNISRLPPVRPALAPLVAFVALPLPRVEGLPDGAESTNDVPHDRPDMVELHRRAFDGLAAPFSEFLGTACADWVIVDVFHHWAAAAALEHKVPCAMMLLGSAHMIASIADRRLERAETESPAAAGQGRPAAAPTFEVARMKLIRTKGSSGMSLAERFSLTLSRSSLVVGRSCVEFEPETVPLLSTLRGKPITFLGLMPPLHEGRREDGEDATVRWLDAQPAKSVVYVALGSEVPLGVEKVHELALGLELAGTRFLWALRKPTGVSDADLLPAGFEERTRGRGVVATRWVPQMSILAHAAVGAFLTHCGWNSTIEGLMFGHPLIMLPIFGDQGPNARLIEAKNAGLQVARNDGDGSFDREGVAAAIRAVAVEEESSKVFQAKAKKLQEIVADMACHERYIDGFIQQLRSYKD
- Conversion RebA to RebD [1]: Active

B3: Example 12: UGT76G1 lysate prepared by pCOLDIII plasmid and Origami2 (DE3) expression strain (protein, UniProt Q6VAB4 1-458, looked up)
UDP-glycosyltransferase 76G1: MENKTETTVRRRRRIILFPVPFQGHINPILQLANVLYSKGFSITIFHTNFNKPKTSNYPHFTFRFILDNDPQDERISNLPTHGPLAGMRIPIINEHGADELRRELELLMLASEEDEEVSCLITDALWYFAQSVADSLNLRRLVLMTSSLFNFHAHVSLPQFDELGYLDPDDKTRLEEQASGFPMLKVKDIKSAYSNWQILKEILGKMIKQTKASSGVIWNSFKELEESELETVIREIPAPSFLIPLPKHLTASSSSLLDHDRTVFQWLDQQPPSSVLYVSFGSTSEVDEKDFLEIARGLVDSKQSFLWVVRPGFVKGSTWVEPLPDGFLGERGRIVKWVPQQEVLAHGAIGAFWTHSGWNSTLESVCEGVPMIFSDFGLDQPLNARYMSDVLKVGVYLENGWERGEIANAIRRVMVDEEGEYIRQNARVLKQKADVSLMKGGSSYESLESLVSYISSL
modifications: E. coli lysate, pCOLDIII
notes: UGT76G1 lysate prepared by pCOLDIII plasmid and Origami2 (DE3) expression strain
- Transformation activity Stevioside to Rebaudioside A [3]: 37 U mL^−1
- Transformation activity Rebaudioside D to Rebaudioside M [4]: 0.20 U mL^−1

B4: gi115454819_NP_001051010.1: Os03g0702500 [Oryza sativa Japonica Group], SEQ ID NO:3 (protein, listed as Oryza sativa)
chain: MDDAHSSQSPLHVVIFPWLAFGHLLPCLDLAERLAARGHRVSFVSTPRNLARLPPVRPELAELVDLVALPLPRVDGLPDGAEATSDVPFDKFELHRKAFDGLAAPFSAFLDTACAGGKRPDWVLADLMHHWVALASQERGVPCAMILPCSAAVVASSAPPTESSADQREAIVRSMGTAAPSFEAKRATEEFATEGASGVSIMTRYSLTLQRSKLVAMRSCPELEPGAFTILTRFYGKPVVPFGLLPPRPDGARGVSKNGKHDAIMQWLDAQPAKSVVYVALGSEAPMSADLLRELAHGLDLAGTRFLWAMRKPAGVDADSVLPAGFLGRTGERGLVTTRWAPQVSILAHAAVCAFLTHCGWGSVVEGLQFGHPLIMLPILGDQGPNARILEGRKLGVAVPRNDEDGSFDRGGVAGAVRAVVVEEEGKTFFANARKLQEIVADREREERCIDEFVQHLTSWNELKNNSDGQYP
- Steviol glycoside conversion in reaction mixture, Reb A [1]: 96.7 % area
- Steviol glycoside conversion in reaction mixture, Reb D [1]: 2.1 % area
- Conversion RebA to RebD [1]: Active
- Conversion after 45 hrs. [2]: 1.1%
- Reb D selectivity [2]: 100%

B5: gi187373030_ACD03249.1: UDP-glycosyltransferase [Avena strigosa], SEQ ID NO:4 (protein, listed as Avena strigosa)
chain: MAVKDEQQSPLHILLFPFLAPGHLIPIADMAALFASRGVRCTILTTPVNAAIIRSAVDRANDAFRGSDCPAIDISVVPFPDVGLPPGVENGNALTSPADRLKFFQAVAELREPFDRFLADNHPDAVVSDSFFHWSTDAAAEHGVPRLGFLGSSMFAGSCNESTLHNNPLETAADDPDALVSLPGLPHRVELRRSQMMDPKKRPDHWALLESVNAADQKSFGEVFNSFHELEPDYVEHYQTTLGRRTWLVGPVALASKDMAGRGSTSARSPDADSCLRWLDTKQPGSVVYVSFGTLIRFSPAELHELARGLDLSGKNFVWVLGRAGPDSSEWMPQGFADLITPRGDRGFIIRGWAPQMLILNHRALGGFVTHCGWNSTLESVSAGVPMVTWPRFADQFQNEKLIVEVLKVGVSIGAKDYGSGIENHDVIRGEVIAESIGKLMGSSEESDAIQRKAKDLGAEARSAVENGGSSYNDVGRLMDELMARRSSVKVGEDIIPTNDGL
- Steviol glycoside conversion in reaction mixture, Reb A [1]: 99.4 % area
- Steviol glycoside conversion in reaction mixture, Reb D [1]: 0.6 % area
- Conversion RebA to RebD [1]: Active
- Conversion after 45 hrs. [2]: 0.8%
- Reb D selectivity [2]: 100%

Second part, led by results:

- Reb D selectivity [2]: Reb D Not detected
B1: gi297795735_XP_002865752.1: UDP-glucoronosyl/UDP-glucosyl transferase family protein [Arabidopsis lyrata subsp. lyrata], SEQ ID NO:7 (protein, listed as Arabidopsis lyrata)
chain: MDDKKEEVMHIAMFPWLAMGHLLPFLRLSKLLAQKGHKISFISTPRNILRLPKLPSNLSSSITFVSFPLPSISGLPPSSESSMDVPYNKQQSLKAAFDLLQPPLTEFLRLSSPDWIIYDYASHWLPSIAKELGISKAFFSLFNAATLCFMGPSSSLIEESRSTPEDFTVVPPWVPFKSTIVFRYHEVSRYVEKTDEDVTGVSDSVRFGYTIDGSDAVFVRSCPEFEPEWFSLLQDLYRKPVFPIGFLPPVIEDDDDDTTWVRIKEWLDKQRVNSVVYVSLGTEASLRREELTELALGLEKSETPFFWVLRNEPQIPDGFEERVKGRGMVHVGWVPQVKILSHESVGGFLTHCGWNSVVEGIGFGKVPIFLPVLNEQGLNTRLLQGKGLGVEVLRDERDGSFGSDSVADSVRLVMIDDAGEEIREKVKLMKGLFGNMDENIRYVDELVGFMRNDESSQLKEEEEEDDCSDDQSSEVSSETDEKELNLDLKEEKRRISVYKSLSSEFDDYVANEKMG
- Steviol glycoside conversion in reaction mixture, Reb A [1]: 95.8 % area
- Steviol glycoside conversion in reaction mixture, Reb D [1]: 0.28 % area
- Steviol glycoside conversion in reaction mixture, Reb UNK (later identified as reb D2) [1]: 3.9 % area
- Conversion RebA to RebD [1]: Active
- Conversion after 45 hrs. [2]: 0.0%

- Reb D selectivity [2]: Reb D Not detected
B6: gi222619587_EEE55719.1: hypothetical protein OsJ_04191 [Oryza sativa Japonica Group], SEQ ID NO:6 (protein, listed as Oryza sativa)
chain: MHVVMLPWLAFGHILPFAEFAKRVARQGHRVTLFSTPRNTRRLIDVPPSLAGRIRVVDIPLPRVEHLPEHAEATIDLPSNDLRPYLRRAYDEAFSRELSRLLQETGPSRPDWVLADYAAYWAPAAASRHGVPCAFLSLFGAAALCFFGPAETLQGRGPYAKTEPAHLTAVPEYVPFPTTVAFRGNEARELFKPSLIPDESGVSESYRFSQSIEGCQLVAVRSNQEFEPEWLELLGELYQKPVIPIGMFPPPPPQDVAGHEETLRWLDRQEPNSVVYAAFGSEVKLTAEQLQRIALGLEASELPFIWAFRAPPDAGDGDGLPGGFKERVNGRGVVCRGWVPQVKFLAHASVGGFLTHAGWNSIAEGLANGVRLVLLPLMFEQGLNARQLAEKKVAVEVARDEDDGSFAANDIVDALRRVMVGEEGDEFGVKVKELAKVFGDDEVNDRYVRDFLKCLSEYKMQRQG
- Steviol glycoside conversion in reaction mixture, Reb A [1]: 92.8 % area
- Steviol glycoside conversion in reaction mixture, Reb D [1]: 0.14 % area
- Steviol glycoside conversion in reaction mixture, Reb UNK (later identified as reb D2) [1]: 7.0 % area
- Conversion RebA to RebD [1]: Active
- Conversion after 45 hrs. [2]: 2.9%

Reference: patent publication US11653679B2, “High-purity steviol glycosides” (PureCircle Sdn Bhd, priority 2014, dated 2023)
